Test results from patent US11214595B2, “BK channel-modulating peptides and their use” (UNIVERSITY OF SOUTH FLORIDA, priority 2016, dated 2022).
Positions of bridges follow the written chain, without caps; N, C: chain ends. Residues, ends and D or L forms follow the SMILES beside them.

Assays:
[1] = Blood-brain barrier crossing after application to the dural surface of the auditory midbrain; conditions: mouse, in vivo
Experimental: The peptide can shuttle both itself and small molecule cargo across the blood-brain barrier of the mammalian brain. […] High dose application supports these peptides' use for suppressing audiogenic seizures, while the lower dose supports these peptides' use for reducing the effects of age-related hearing loss.
When this compound was applied to the dura, fluorescence could be seen at ˜1200 microns in depth after 8 hours.

[2] = target: T1, human BKα channel (ZERO isoform) (Homo sapiens, UniProt Q12791); experiment: Patch-clamp recordings of human BKα channels (ZERO isoform) expressed in HEK293 cells, inside-out patches; assay type: cell-based
T1 construct: expressed in transfected cells; host or cells: HEK293
T1 sequence (Q12791 1-1178 isoform Q12791-5): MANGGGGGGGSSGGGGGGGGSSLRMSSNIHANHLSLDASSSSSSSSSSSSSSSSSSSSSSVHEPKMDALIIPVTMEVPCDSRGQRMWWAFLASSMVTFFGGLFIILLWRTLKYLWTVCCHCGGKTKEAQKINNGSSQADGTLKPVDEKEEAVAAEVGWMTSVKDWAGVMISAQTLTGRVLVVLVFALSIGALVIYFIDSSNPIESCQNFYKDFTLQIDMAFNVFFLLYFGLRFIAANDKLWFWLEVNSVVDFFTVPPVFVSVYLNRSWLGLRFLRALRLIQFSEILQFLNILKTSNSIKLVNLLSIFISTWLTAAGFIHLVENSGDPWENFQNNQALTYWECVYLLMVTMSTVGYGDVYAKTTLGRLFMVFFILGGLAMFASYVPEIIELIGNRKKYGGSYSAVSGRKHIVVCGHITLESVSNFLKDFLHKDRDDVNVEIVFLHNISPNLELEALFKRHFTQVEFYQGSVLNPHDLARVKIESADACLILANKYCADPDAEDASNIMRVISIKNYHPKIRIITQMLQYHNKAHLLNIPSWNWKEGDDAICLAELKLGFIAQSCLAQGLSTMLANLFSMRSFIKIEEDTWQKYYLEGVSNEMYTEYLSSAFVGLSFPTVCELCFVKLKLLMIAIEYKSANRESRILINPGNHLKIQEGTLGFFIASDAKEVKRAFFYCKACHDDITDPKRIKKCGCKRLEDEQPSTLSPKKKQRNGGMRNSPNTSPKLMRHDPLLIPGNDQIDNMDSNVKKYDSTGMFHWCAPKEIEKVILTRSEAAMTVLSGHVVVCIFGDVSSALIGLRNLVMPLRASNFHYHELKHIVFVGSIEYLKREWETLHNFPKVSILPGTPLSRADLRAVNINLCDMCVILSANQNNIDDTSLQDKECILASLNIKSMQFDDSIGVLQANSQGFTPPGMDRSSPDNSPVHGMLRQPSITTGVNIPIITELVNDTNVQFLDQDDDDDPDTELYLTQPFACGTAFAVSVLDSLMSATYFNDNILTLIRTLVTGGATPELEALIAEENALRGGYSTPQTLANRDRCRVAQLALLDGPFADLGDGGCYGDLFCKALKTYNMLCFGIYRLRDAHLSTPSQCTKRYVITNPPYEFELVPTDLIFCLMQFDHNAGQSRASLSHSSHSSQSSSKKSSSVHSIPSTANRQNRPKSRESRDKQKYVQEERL
Experimental: FIGS. 6A-6H. LS3 alters the gating of human BK channels. Human BKα channels (ZERO isoform) expressed in HEK293 cells were recorded in inside-out patches. Peptide was applied by diffusion to the extracellular side. Intracellular calcium held at 750 nM. […] FIGS. 6C-6E, Bar graphs displaying the post-peptide Po relative to the starting Po across LS3 concentrations. […] FIG. 6F-6H, Bar graphs displaying the post-peptide Po relative to the starting Po for either 500 nM LS3 (cyclic) or 500 nM of the reduced form of LS3 (linear).
FIGS. 7A-7C. LS3 alters open and closed dwell times of the human BK channel. Single human BKα channels (ZERO isoform) expressed in HEK293 cells were recorded in inside-out patches. Intracellular calcium held at 750 nM. FIGS. 7A-7C, Bar graphs showing one example of changes in open and closed dwell times before (red) and after (black) 500 nM LS3 (100 mV). Channel open dwell times shortened (FIG. 7A).
FIGS. 11A-11C. The 9-amino acid peptides with an N- and C-terminal disulfide bond express motifs that were highly enriched in a screen for BK channel targeted peptides (FIG. 11A). […] 60 mV shown. N=6-12. Dotted line indicates baseline (FIGS. 11B and 11C).
FIGS. 13A-1, 13A-2, 13B, 13C-1, 13C-2, 13D-1, and 13D-2. […] Single human BKα (ZERO isoform) channels expressed in HEK293 cells were recorded in inside-out patches before and after 500 nM LS10. Intracellular calcium held at 750 nM. FIGS. 13A-1 and 13A-2: open dwell times before (FIG. 13A-1) and after (FIG. 13A-2) LS10 for a representative recording at 100 mV. Single exponential fit, red line. FIG. 13B: the mean change in peak open dwell times in response to LS10. Paired Student's t-tests compared the pre- and post-peptide peak open durations, *p<0.05, N=5-6). FIGS. 13C-1 and 13C-2: closed dwell times before (FIG. 13C-1) and after (FIG. 13C-2) LS10 for a representative recording at 100 mV. […] Three component exponential fits (gray dotted-lines) and summation (red lines) also indicated. FIGS. 13D-1 and 13D-2: the mean change in peak short (FIG. 13D-1) and long (FIG. 13D-2) duration closed dwell times in response to LS10. Paired Student's t-tests compared the pre- and post-peptide peak open durations, *p<0.05, N=6.
(§1) HEK293 cells (ATCC, Manassas, Va.) were grown according to standard procedures. Cells were cultured at 37° C. in a 5% CO2 atmosphere in Dulbecco's modified Eagle's medium with 1-glutamine, sodium pyruvate and 10% fetal bovine serum (Invitrogen). Cell lines were split with trypsin/EDTA in Hanks' balanced salt solution (Invitrogen) up to 25-30 cycles. For phage display, stable lines stably expressed rSK2 or hBKα ZERO isoform. Cells were transfected (Lipofectamine 2000, Invitrogen) with hGlyRα1 and used 48 hours later. For electrophysiological recordings, cells were transfected with the hBKα ZERO or STREX isoform. Enhanced green fluorescent protein (EGFP) was cotransfected as a marker. Electrophysiological recordings were made 16-72 h after transfection. Although the profile of BK channel composition varies from tissue to tissue, the ZERO BK channel splice variant is widely expressed, particularly in the nervous system, serving as a representative form for studying the modulation of BK channel gating.
Voltage-clamp recordings were performed at room temperature (22-24° C.) using an inside-out configuration on patches pulled from HEK293 cells. The extracellular solution contained the following (in mM): 2 KCl, 136 KOH, 20 Hepes, 2 MgCl2, adjusted to pH 7.2 with MeSO3H. In order to apply peptide to the extracellular surface, patch electrodes (7-20 MΩ in resistance) were tip filled with normal extracellular solution and backfilled with extracellular solution containing LS3. Enough normal extracellular solution was included to provide at least five minutes of peptide-free recording (determined by plotting Po vs. time). The intracellular solution (in the bath) contained the following (in mM): 6 KCl, 132 KOH, 20 Hepes, adjusted to pH 7.2 with MeSO3H. […]

[3] = test system: smooth muscle; experiment: Ex vivo preparations of bladder
[4] = test system: inferior colliculus neurons; conditions: topical 1 μL of 10 μM stock on surface of IC, 5 hours post-application, N=5 mice
[5] = target: T2, human BKα channel (STREX isoform) (Homo sapiens, UniProt Q12791); experiment: Patch-clamp recordings of human BKα channels (STREX isoform) expressed in HEK293 cells, inside-out patches; assay type: cell-based; conditions: 500 nM, 100 mV, intracellular calcium 750 nM
T2 construct: expressed in transfected cells; host or cells: HEK293
T2 sequence (Q12791 whole entry, canonical isoform): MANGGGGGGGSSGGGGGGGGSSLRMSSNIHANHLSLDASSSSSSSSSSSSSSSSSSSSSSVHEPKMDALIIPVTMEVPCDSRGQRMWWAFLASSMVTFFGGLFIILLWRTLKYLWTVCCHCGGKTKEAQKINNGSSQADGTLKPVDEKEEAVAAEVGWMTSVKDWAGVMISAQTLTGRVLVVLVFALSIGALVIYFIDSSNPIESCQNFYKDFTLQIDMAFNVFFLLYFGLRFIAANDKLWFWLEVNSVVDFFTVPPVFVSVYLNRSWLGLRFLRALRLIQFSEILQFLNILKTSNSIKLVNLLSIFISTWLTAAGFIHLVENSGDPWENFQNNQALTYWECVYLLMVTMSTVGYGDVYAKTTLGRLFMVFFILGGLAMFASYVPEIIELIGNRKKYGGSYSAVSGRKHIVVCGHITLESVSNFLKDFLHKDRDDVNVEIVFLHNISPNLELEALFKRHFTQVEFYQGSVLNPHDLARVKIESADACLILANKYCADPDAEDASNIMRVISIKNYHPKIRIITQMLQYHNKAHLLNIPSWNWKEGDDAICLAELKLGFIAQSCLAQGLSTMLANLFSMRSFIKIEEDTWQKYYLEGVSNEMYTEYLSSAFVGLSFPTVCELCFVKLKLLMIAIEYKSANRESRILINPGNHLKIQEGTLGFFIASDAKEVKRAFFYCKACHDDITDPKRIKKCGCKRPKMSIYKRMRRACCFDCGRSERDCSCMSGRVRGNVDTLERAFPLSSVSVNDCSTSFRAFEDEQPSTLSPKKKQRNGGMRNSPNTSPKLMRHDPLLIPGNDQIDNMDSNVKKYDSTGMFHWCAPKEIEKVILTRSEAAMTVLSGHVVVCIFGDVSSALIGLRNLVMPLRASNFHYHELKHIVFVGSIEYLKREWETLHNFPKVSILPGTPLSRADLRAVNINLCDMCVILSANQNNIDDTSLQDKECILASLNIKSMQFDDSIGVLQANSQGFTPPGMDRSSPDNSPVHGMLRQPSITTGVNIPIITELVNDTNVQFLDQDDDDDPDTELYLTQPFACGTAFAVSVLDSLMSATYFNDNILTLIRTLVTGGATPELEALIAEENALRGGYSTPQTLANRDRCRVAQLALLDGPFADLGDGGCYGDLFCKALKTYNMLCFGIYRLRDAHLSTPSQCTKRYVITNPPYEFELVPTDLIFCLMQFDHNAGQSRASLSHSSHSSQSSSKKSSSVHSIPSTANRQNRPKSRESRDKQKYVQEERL
Experimental: (§2) FIGS. 12A, 12B-1, 12B-2, 12C, 12D, and 12E. […] FIGS. 12B-1 and 12B-2: representative three second traces at 100 mV before and after LS10 (500 nM). […] BKα channels expressed in HEK293 cells were recorded in inside-out patches. Intracellular calcium held at 750 nM. […] SLO-1 channels expressed in oocytes cells were recorded in inside-out patches. Intracellular calcium held at 5 μM.
as §1, with “Electrophysiological recordings were made 16-72 h after transfection. Although the profile of BK channel composition varies from tissue to tissue, the ZERO BK channel splice variant is widely expressed, particularly in the nervous system, serving as a representative form for studying the modulation of BK channel gating.” left out
Voltage-clamp recordings were performed at room temperature (22-24° C.) using an inside-out configuration on patches pulled from HEK293 cells. […] Enough normal extracellular solution was included to provide at least five minutes of peptide-free recording (determined by plotting Po vs. time). […]

[6] = target: T3, worm BK channel (SLO-1) (Caenorhabditis elegans, UniProt Q95V25); experiment: Inside-out patch recordings of SLO-1 channels expressed in oocytes; assay type: cell-based, C. elegans; conditions: 100 mV, intracellular calcium 5 μM
T3 construct: expressed in transfected cells
T3 sequence (Q95V25 whole entry): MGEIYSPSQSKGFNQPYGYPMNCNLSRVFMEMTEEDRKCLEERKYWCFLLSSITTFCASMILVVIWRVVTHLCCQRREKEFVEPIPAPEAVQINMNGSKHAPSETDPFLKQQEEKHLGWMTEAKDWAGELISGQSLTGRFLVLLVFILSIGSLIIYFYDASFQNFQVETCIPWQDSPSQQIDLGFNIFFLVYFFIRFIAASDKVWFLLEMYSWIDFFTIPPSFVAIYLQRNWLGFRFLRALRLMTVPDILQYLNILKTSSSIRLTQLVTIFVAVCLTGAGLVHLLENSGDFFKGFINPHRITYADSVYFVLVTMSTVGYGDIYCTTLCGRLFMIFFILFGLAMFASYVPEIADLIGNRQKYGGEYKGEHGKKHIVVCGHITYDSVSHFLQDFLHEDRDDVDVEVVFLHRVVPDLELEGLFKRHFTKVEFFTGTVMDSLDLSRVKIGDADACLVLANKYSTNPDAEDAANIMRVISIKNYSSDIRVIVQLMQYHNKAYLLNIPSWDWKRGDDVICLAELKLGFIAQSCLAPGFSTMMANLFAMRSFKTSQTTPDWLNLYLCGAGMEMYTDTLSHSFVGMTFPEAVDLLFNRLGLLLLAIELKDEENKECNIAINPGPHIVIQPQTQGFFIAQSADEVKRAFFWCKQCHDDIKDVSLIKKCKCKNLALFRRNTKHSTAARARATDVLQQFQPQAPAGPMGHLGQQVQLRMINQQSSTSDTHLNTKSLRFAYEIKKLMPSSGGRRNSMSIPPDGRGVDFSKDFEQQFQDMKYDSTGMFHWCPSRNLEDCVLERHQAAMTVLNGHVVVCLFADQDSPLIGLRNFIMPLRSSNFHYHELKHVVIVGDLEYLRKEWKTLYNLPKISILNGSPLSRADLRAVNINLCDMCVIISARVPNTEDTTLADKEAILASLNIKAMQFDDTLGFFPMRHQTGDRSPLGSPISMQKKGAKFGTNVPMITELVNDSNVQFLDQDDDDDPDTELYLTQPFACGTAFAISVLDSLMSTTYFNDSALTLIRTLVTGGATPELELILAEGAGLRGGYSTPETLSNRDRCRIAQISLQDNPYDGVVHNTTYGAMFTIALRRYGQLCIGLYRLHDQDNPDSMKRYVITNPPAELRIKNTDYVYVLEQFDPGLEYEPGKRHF
Experimental: as §2
FIGS. 14A-1, 14A-2, and 14B. LS10 prevents the potentiation of BK channels by acute ethanol exposure. SLO-1 channels expressed in oocytes cells were recorded in inside-out patches before. Intracellular calcium held at 5 μM. FIGS. 14A-1 and 14A-2: representative three second traces at 100 mV before (upper traces) and after (lower traces) bath application of 50 mM ethanol. […] FIG. 14B: mean Po change in response to ethanol for control recordings (open bars) and in the presence of LS10 (shaded bars). Paired Student's t-tests compared the Po before and after ethanol, *p<0.05, N=5.

CC(C)[C@@H]1NC(=O)CNC(=O)[C@H](CCCNC(=N)N)NC(=O)[C@H](C)NC(=O)[C@@H](N)CSSC[C@@H](C(=O)O)NC(=O)[C@H](C(C)C)NC(=O)[C@H](CCCNC(=N)N)NC(=O)[C@H](Cc2ccc(O)cc2)NC1=O [LS1, CARGVYRVC] (H-CARGVYRVC-OH; disulfide 1-9; N-terminus and C-terminus assumed)
crossing of the blood-brain barrier [1]: able to cross the blood-brain barrier

CC(C)C[C@@H]1NC(=O)CNC(=O)[C@H](CCCNC(=N)N)NC(=O)[C@H](CCCNC(=N)N)NC(=O)[C@@H](N)CSSC[C@@H](C(=O)O)NC(=O)[C@H](C(C)C)NC(=O)[C@H](CCC(N)=O)NC(=O)[C@H](C(C)C)NC1=O [LS3, CRRGLVQVC] (H-CRRGLVQVC-OH; disulfide 1-9; N-terminus and C-terminus assumed)
IC50 ([2]; suppression of channel openings): low hundreds | crossing of the blood-brain barrier [1]: can cross the blood-brain barrier | anti-BK channel activity in smooth muscle [3]: does not show typical anti-BK channel activity in smooth muscle

CC(C)(O)[C@H]1O[C@H]2CC[C@@]3(C)[C@@](O)(CC[C@H]4Cc5c([nH]c6ccccc56)[C@@]43C)C2=CC1=O [paxilline]
reduction in sound driven activity [4]: 87%

CAVGRLAVC (pskan10/LS10 peptide)
open dwell times / mean open times ([2]; 500 nM peptide, single channels, intracellular calcium 750 nM, each holding voltage): shortens open dwell times | closed dwell times ([2]; 500 nM peptide, three-component exponential fits, intracellular calcium 750 nM): Half of the recordings showed a lengthening in closed times | mean open times ([2]; 500 nM, 60 mV): reduce mean open times | change in probability of opening (Po) ([2]; 500 nM, 100 mV, intracellular calcium 750 nM): little change in the probability of opening | change in probability of opening (Po) [5]: little change in the probability of opening | change in probability of opening (Po) ([6]; 500 nM): significant reduction in the probability of opening | potentiation of the probability of opening (Po) by ethanol ([6]; 50 mM ethanol, 500 nM peptide): blocked

reduced form of LS3 (linear): the reduced form of LS3 (linear), without the disulfide bridge (CRRGLVQVC; cyclised or stapled)
post-peptide Po relative to the starting Po ([2]; 500 nM, linear vs cyclic form): did not alter Po
